Literature values, collected in US20230076733A1, “Combination Therapy” (AGENCY FOR SCIENCE, TECHNOLOGY AND RESEARCH, priority 2020, published 2023).

Conditions: phase 3 trials, cited from earlier work

B1: Figitumumab (antibody, chains of the INN, looked up)
heavy: EVQLLESGGGLVQPGGSLRLSCTASGFTFSSYAMNWVRQAPGKGLEWVSAISGSGGTTFYADSVKGRFTISRDNSRTTLYLQMNSLRAEDTAVYYCAKDLGWSDSYYYYYGMDVWGQGTTVTVSSASTKGPSVFPLAPCSRSTSESTAALGCLVKDYFPEPVTVSWNSGALTSGVHTFPAVLQSSGLYSLSSVVTVPSSNFGTQTYTCNVDHKPSNTKVDKTVERKCCVECPPCPAPPVAGPSVFLFPPKPKDTLMISRTPEVTCVVVDVSHEDPEVQFNWYVDGVEVHNAKTKPREEQFNSTFRVVSVLTVVHQDWLNGKEYKCKVSNKGLPAPIEKTISKTKGQPREPQVYTLPPSREEMTKNQVSLTCLVKGFYPSDIAVEWESNGQPENNYKTTPPMLDSDGSFFLYSKLTVDKSRWQQGNVFSCSVMHEALHNHYTQKSLSLSPG
light: DIQMTQFPSSLSASVGDRVTITCRASQGIRNDLGWYQQKPGKAPKRLIYAASRLHRGVPSRFSGSGSGTEFTLTISSLQPEDFATYYCLQHNSYPCSFGQGTKLEIKRTVAAPSVFIFPPSDEQLKSGTASVVCLLNNFYPREAKVQWKVDNALQSGNSQESVTEQDSKDSTYSLSSTLTLSKADYEKHKVYACEVTHQGLSSPVTKSFNRGEC
For B1, the “serious adverse events and deaths” value (lung cancer, Figitumumab in combination with one chemotherapy regimen versus carboplatin or paclitaxel chemotherapy alone) is listed as 21% and the survival (Figitumumab combined with established chemotherapy regimens (carboplatin and paclitaxel)) is listed as “failed to improve survival”.
